Substitutions are numbered along the chain they refer to.
Tests used:
[1] = molecular target: T1, hRev1 330-833 E466A (human, UniProt Q9UBZ9 330-833, E466A); test: fluorescence polarization; 100 mM KCl?; Fluorescence polarization: 1 nM FAM-DNA, 100 mM KCl or LiCl; DNA annealed in 50 mM HEPES pH 7.5; full buffer as in cited ref 17, temperature not stated. Footprinting: 50 mM HEPES pH 7.5, 100 mM KCl, 10 uM protein, 30 uM ssDNA, room temperature; conditions: protein: recombinant, label: 5'-FAM
T1 sequence: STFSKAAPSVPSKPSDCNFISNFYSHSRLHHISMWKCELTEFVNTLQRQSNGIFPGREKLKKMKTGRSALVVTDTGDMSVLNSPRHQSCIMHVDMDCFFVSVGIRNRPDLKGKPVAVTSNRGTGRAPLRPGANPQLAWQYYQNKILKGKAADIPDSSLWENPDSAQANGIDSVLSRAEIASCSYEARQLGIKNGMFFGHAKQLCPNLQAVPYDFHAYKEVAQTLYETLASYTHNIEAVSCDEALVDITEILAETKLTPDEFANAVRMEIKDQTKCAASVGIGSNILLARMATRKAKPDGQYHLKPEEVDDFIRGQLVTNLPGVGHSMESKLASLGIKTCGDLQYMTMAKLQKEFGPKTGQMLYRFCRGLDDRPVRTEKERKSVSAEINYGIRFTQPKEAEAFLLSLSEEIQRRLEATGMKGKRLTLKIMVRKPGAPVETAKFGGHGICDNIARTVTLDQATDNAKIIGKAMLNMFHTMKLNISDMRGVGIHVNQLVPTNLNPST

[2] = molecular target: T2, hRev1 330-833 Y470A (human, UniProt Q9UBZ9 330-833, Y470A); test: as above; conditions: protein: recombinant, label: 5'-FAM
T2 sequence: T1 sequence with A137E, Y141A

[3] = molecular target: T3, hRev1 330-833 L358A (human, UniProt Q9UBZ9 330-833, L358A); test: as above; conditions: protein: recombinant, label: 5'-FAM
T3 sequence: T1 sequence with L29A, A137E

[4] = molecular target: T4, hRev1 330-833 polymerase core (human, UniProt Q9UBZ9 330-833); test: fluorescence polarization; 100 mM LiCl; Fluorescence polarization: 1 nM FAM-DNA, 100 mM KCl or LiCl; DNA annealed in 50 mM HEPES pH 7.5; full buffer as in cited ref 17, temperature not stated. Footprinting: 50 mM HEPES pH 7.5, 100 mM KCl, 10 uM protein, 30 uM ssDNA, room temperature; conditions: protein: recombinant; label: 5'-FAM
T4 sequence: T1 sequence with A137E

[5] = parallel G4 (1:2:1 loops) in K+

For AGGGTGGGTAGGGTGGGTTATGAGATGAT (structured_DNA) [Myc 14/23 ss G4], which Kd [1, 5] is on record?
The Kd was 280 ± 20 nM.

And the Kd [2, 5]?
Its Kd is 180 ± 30 nM.

What about the Kd [3, 5] of the same binder?
Its Kd is 77 ± 8 nM.

Which Kd [1] does the source give for AGCGTGCGTAGCGTGCGTTATGAGATGAT (ssDNA) [Non-G4 Myc control ss] here?
The Kd was 1100 ± 130 nM.

What about the Kd [2] of the same binder?
The Kd was 740 ± 180 nM.

And the Kd [3]?
The Kd was 660 ± 140 nM.

And the Kd [4]?
Its Kd is 760 ± 290 nM.

Reference: paper PMC7913688, “Human Rev1 relies on insert-2 to promote selective binding and accurate replication of stabilized G-quadruplex motifs”
